Experiment [1] has as its target T1, Z1Z2 (two Ig domains at the N terminus of the titin molecule) (human).
T1 construct: also called polypeptide A
T1 chain: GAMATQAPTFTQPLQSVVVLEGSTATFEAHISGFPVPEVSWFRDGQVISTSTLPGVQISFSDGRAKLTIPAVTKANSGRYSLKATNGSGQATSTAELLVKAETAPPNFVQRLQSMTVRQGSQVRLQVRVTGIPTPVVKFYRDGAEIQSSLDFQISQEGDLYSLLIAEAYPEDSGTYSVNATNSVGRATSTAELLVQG
The experiment in a line: complex formation by mixing in urea and dialysis, then co-purification.

Experiment [2] addresses T1, Z1Z2 (two Ig domains at the N terminus …). Kind of experiment: SDS-PAGE and Native-PAGE of the purified complex.
A further experiment has as its target T2, ZSST (human).
T2 construct: Two ZSST chains stand in the ZSST/TeN complex; End residue 237 from claim 18; also called SST inserted into a loop of the Z1Z2 molecule
T2 chain: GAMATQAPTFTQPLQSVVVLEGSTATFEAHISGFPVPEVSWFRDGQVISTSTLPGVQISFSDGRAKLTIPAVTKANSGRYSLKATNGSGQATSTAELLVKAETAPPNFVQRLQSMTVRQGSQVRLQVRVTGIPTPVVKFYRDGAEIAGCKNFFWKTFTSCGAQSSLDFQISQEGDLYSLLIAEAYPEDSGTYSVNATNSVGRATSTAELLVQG
Kind of experiment: SDS-PAGE and Native-PAGE of the purified complex.

The next experiment concerns the target T3, GLZ (human).
T3 construct: Two GLZ chains stand in the GLZ/TeN complex; End residue 260 from claim 16; also called GLP-1(8G) attached to the N terminus of Z1Z2
T3 chain: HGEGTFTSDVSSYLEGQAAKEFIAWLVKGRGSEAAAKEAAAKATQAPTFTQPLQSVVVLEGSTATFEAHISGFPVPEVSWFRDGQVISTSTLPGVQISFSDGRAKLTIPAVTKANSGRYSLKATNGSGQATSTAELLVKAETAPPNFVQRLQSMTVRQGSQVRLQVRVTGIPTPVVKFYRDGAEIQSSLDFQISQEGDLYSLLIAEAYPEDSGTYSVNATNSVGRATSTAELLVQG
Kind of experiment: SDS-PAGE and Native-PAGE of the purified complex.

B1: GLTe (other)
chain: HAEGTFTSDVSSYLEGQAAKEFIAWLVKGRGGGGGSGGGGSGGGGSAMATSELSSEVSEENSERREAFWAEWKDLTLSTRPEEGSSLHEEDTQRHETYHQQGQSQVLVQRSPWLMMRMGILGRGLQEYQLPYQRVLP
notes: TEV site printed as between positions 25 and 26, in conflict with GLP-1 at 25-55; claim 15 gives 25-161; also called GLP-1 (7-37) attached via (GGGGS)3 to the N terminus of TeN
As for B1, in experiment [1], the binding result was “binds”.

B2: SSTe (other)
chain: GAMATSELSSEVSEENSEAGCKNFFWKTFTSCGGRREAFWAEWKDLTLSTRPEEGSSLHEEDTQRHETYHQQGQSQVLVQRSPWLMMRMGILGRGLQEYQLPYQRVLP
notes: claim 17 gives 25-132; also called SST inserted into the Loop (LT1) of a TeN mutant
Consider B2, for which the binding result in experiment [2] is recorded as “binds”.

B3: TeN (N terminus of Telethonin, Cys mutated to Ser) (other)
chain: GAMATSELSSEVSEENSERREAFWAEWKDLTLSTRPEEGSSLHEEDTQRHETYHQQGQSQVLVQRSPWLMMRMGILGRGLQEYQLPYQRVLP
notes: also called polypeptide B
As to B3, the binding result with ZSST and with GLZ was “binds” each time.

For the origin of these results see patent US20170360949A1 (TIANJIN INSTITUTE OF INDUSTRIAL BIOTECHNOLOGY CHINESE …, published 2017).
